Consider five molecules from patent US20070178531A1 (BIOCHECK, published 2007).

The target in assay [1] is T1, Human Id3: Histidine (human, UniProt Q02535 1-119 at identity 1.00)).
T1 construct: Fusion protein made in E. coli from vector pGW07; also called h-Id3: His; Human Id3 (coated wells); not shown: His tag
T1 chain: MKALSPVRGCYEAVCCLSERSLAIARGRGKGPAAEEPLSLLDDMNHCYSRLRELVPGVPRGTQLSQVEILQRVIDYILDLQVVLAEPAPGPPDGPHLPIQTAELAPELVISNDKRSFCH
Put plainly: ELISA, Ab 0.000 µg/ml (blank). The protocol:
(§1) The rabbit monoclonal anti-human Id3 (clone #3-3) and the rabbit monoclonal anti-mouse/human Id3 (clones #6-1, 16-1, 17-3, and 42-1) produced in Example 6 were tested reactivity against the following antigens: mouse Id1:His, human Id1:His, mouse Id2:His, human Id2:His, mouse Id3:His, human Id3:His, mouse Id4:His, human Id4:His and GST.
(§2) 1. Microtiter wells (prepared in accordance with Example 6) were coated (0.1 μg/well) with mouse Id1:His, human Id1:His, human Id2:His, human Id3:His, and 1.0 μg/well with GST. [0155] 2. Antibody Diluent: 0.25% (w/v) BSA in 0.015M KPO₄ Buffer, 0.85% (w/v) NaCl, 0.1% (w/v) NaN₃, pH=7.40 [0156] 3. Rabbit monoclonal anti-human Id3 (clone #3-3) prepared in Example 7 was diluted to […] with the antibody diluent. […] 4. Rabbit monoclonal anti-mouse/human Id3 (clones #6-1, 16-1, 17-3, 42-1) prepared in Example 7 was diluted to 0.005, 0.010, 0.025, 0.05, 0.10, 0.25, and 0.50 μg/ml with the antibody diluent. […] 5. Conjugate Diluent: 50% (v/v) which consists of an aqueous solution containing Fetal Bovine Serum in 0.05 M Tris, 1% (v/v) Proclin-300, pH 7.6. [0159] 6. Conjugate: Goat anti-rabbit IgG (H+L)-HRP conjugate. [0160] 7. TMB reagent. […] 8. Stop solution (1 N HCI). Method
(§3) 1. Dispense 100 μL of antibody diluent, diluted rabbit monoclonal human Id3, and mouse/human Id3 hybridoma supernatants into appropriate wells. […] 2. Incubate at room temperature with mechanical shaking at 750 rpm for 90 minutes. [0165] 3. Remove the incubation mixture by flicking plate content into an appropriate waste container followed by rinsing the wells 5 times with distilled water. [0166] 4. Strike the wells sharply onto absorbent paper or paper towels to remove all residual water droplets. [0167] 5. Dispense 100 μL of 1:50,000 Goat Anti-Rabbit IgG-HRP Conjugate Reagent into each well. Gently mix for 5 seconds. [0168] 6. Incubate at room temperature with mechanical shaking at 750 rpm for 90 minutes. [0169] 7. Repeat procedures 3 and 4. [0170] 8. Dispense 100 μL of TMB Reagent into each well. Gently mix for 5 seconds. [0171] 9. Incubate at room temperature with mechanical shaking at 750 rpm for 20 minutes. […] 10.
In general terms: In an ELISA, binding on a coated surface is turned into a signal by an enzyme label.

Assay [2] addresses T2, Mouse Id2: Histidine (mouse, UniProt P41136 1-134, limits assumed).
T2 construct: Fusion protein made in E. coli from vector pGW07; also called m-Id2: His; not shown: His tag
T2 sequence (looked up): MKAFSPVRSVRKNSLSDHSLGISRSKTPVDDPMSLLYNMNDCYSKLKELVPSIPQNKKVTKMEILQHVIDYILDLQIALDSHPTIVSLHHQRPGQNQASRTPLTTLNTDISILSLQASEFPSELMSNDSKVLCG
Put plainly: ELISA, Ab 0.000 µg/ml (blank). Here is the method:
as §1, §2, §3

For assay [3], the target named is T3, Mouse Id3: Histidine (mouse, UniProt P41133 1-119).
T3 construct: Fusion protein made in E. coli from vector pGW07; also called m-Id3: His; Mouse Id3 (coated wells); not shown: His tag
T3 sequence: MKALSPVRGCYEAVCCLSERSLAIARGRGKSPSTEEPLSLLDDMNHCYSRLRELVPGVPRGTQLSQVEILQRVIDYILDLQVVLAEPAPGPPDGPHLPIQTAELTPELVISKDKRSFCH
Kind of assay: ELISA, Ab 0.000 µg/ml (blank). The protocol: as §1, §2, §3

Assay [4] concerns the target T1, Human Id3: Histidine. Kind of assay: ELISA, positive control (stated to be BCH-4/6-1) 0.50 µg/ml. Here is the method:
as §3, with “10. Add 100 μL of Stop Solution (1N HCl) into each well. [0173] 11. Gently mix for 10 seconds to ensure a complete mixing. [0174] 12. Read optical density at A450 nm.” for “10.”
(§4) The materials and method are the same as those described in Example 9 except the following.
(§5) Rabbit monoclonal anti-mouse Id3, hybridoma supernatant was used as the test antibody. Protein G purified, rabbit monoclonal anti-mouse/human Id3 antibody, BCH-4/6-1, 0.92 mg/ml in 0.25% BSA was used as positive controls.

The target in assay [5] is T4, Human Id2: Histidine (human, UniProt Q02363 1-134, limits assumed).
T4 construct: Fusion protein made in E. coli from vector pGW07; also called h-Id2: His; not shown: His tag
T4 sequence (looked up): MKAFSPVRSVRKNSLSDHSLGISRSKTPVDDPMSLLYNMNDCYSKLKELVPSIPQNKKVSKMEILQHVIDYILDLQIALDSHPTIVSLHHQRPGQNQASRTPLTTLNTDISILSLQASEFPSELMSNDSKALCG
Described as above. Here is the method: as §3, with “10. Add 100 μL of Stop Solution (1N HCl) into each well. [0173] 11. Gently mix for 10 seconds to ensure a complete mixing. [0174] 12. Read optical density at A450 nm.” for “10.”
as §4, §5

B1: rabbit monoclonal anti-mouse/human Id3, clone #BCH-4/#16-1 (antibody, V domains shown)
VH: QSVEESGGRLVTPGTPLTLTCTASGFSLSSYYIHWVRQAPGKALEWIGYISDGGTTYYASWAKGRFTISKTSSTTVDLKMTSLTTEDTATYFCARQGFNIWGPGTLVTVSL
VL: AVLTQTPSPVSAAVGGTVTISCQSSQSVYNNNWLSWFQQKSGQPPKLLIYETSKLESGVPSRFKGSGSGTQFTLTIIDVQCDDAATYYCLGGYWTTSDNNIFGGGTEVVVK
notes: Rabbit IgG from a rabbit hybridoma; also called m/h Id3 MoAb 16-1
For B1, the results for the A450 in assay [1], in assay [2] and in assay [3] were 0.046 A450, 0.046 A450 and 0.044 A450, respectively.

B2: rabbit monoclonal anti-mouse/human Id3, clone #BCH-4/#6-1 (antibody, V domains shown)
VH: QSVEESGGRLVTPGTPLTLTCTASGFSLSNVYIHWVRQAPGKGLEWIGYISDGDTARYATWAKGRFTISKTSSTTVNLKMTSLTTEDTATYFCARQGFNIWGPGTLVTVSL
VL: AVLTQTPSPVSAAVGGTVSISCQSSQSVWNNNWLSWFQQKPGQPPKLLIYETSKLESGVPSRFKGSGSGTQFTLTISDVQCDDAATYYCLGGYWTTSDNNVFGGGTEVVVK
notes: Rabbit IgG from a rabbit hybridoma; also called m/h Id3 MoAb 6-1
For the molecule B2, the A450 in assay [4] amounted to 2.83 A450; in assay [5] it was 3.23 A450; in assay [1], 0.043 A450; in assay [2] it was 0.044 A450; in assay [3] it was 0.047 A450.

B3: rabbit monoclonal anti-mouse/human Id3, clone #BCH-4/#17-3 (antibody, V domains shown)
VH: QSVEESGGRLVTPGTPLTLTCTASGFSLSNVYIHWVRQAPGKGLEWIGYISDGDTARYATWAKGRFTISKTSSTTVNLKMTSLTTEDTATYFCARQGFNIWGPGTLVTVSL
VL: AVLTQTPSPVSAAVGGTVSISCQSSQSVWNNNWLSWFQQKPGQPPKLLIYETSKLESGVPSRFKGSGSGTQFTLTISDVQCDDAATYYCLGGYWTTSDNNVFGGGTEVVVK
notes: Rabbit IgG from a rabbit hybridoma; also called m/h Id3 MoAb 17-3; BCH-3/#17-3
Regarding B3, the A450 in assay [1] was 0.045 A450; in assay [2], 0.048 A450; in assay [3], 0.047 A450.

B4: rabbit monoclonal anti-mouse/human Id3, clone #BCH-4/#42-1 (antibody, V domains shown)
VH: QSVEESGGRLVTPGTPLTLTCTASGFSLSSYYIHWVRQAPGKALEWIGYISDGGTTYYASWAKGRFTISKTSSTTVDLKMTSLTTEDTATYFCARQGFNIWGPGTLVTVSL
VL: AVLTQTPSPVSAAVGGTVTISCQSSQSVYNNNWLSWFQQKSGQPPKLLIYETSKLESGVPSRFKGSGSGTQFTLTIIDVQCDDAATYYCLGGYWSTSDNNIFGGGTEVVVK
notes: Rabbit IgG from a rabbit hybridoma; also called m/h Id3 MoAb 42-1
Take B4: the values for the A450 in assay [1], in assay [2] and in assay [3] were 0.044 A450, 0.048 A450 and 0.047 A450, respectively.

B5: rabbit monoclonal anti-human Id3, clone #BCH-4/#3-3 (antibody, V domains shown)
VH: QSVEESGGRLVTPGTPLTLTCTVSGIDLSSYAMSWVRQAPGKGLEWIGVIFPSNNVYYASWAKGRFTISKTSTTVDLKITSPTTEDTATYFCASMGAFDSWGPGTLVTVSS
VL: QVLTQTPSPVSAAVGGTVTINCQASQSIYNDNDLAWFQQKPGQPPKLLIYDASTLTSGVPSRFKGSGSGTQFTLTISDLDCDDAATYYCAARYSGNIYGFGGGTEVVVK
notes: Rabbit IgG from a rabbit hybridoma; also called h Id3 MoAb 3-3
For the molecule B5, the A450 in assay [2] turned out to be 0.048 A450.
